Assay results taken from publication doi:10.1101/2024.09.12.612744 (bioRxiv, 2024).

Experiments:
[1] = biological target: the molecule itself; experiment: SEC
[2] = biological target: the molecule itself; experiment: cryo-EM structure

Row | Protein | binding result [1] | stoichiometry N [2]
1 | PKD2 WT channel (hPKD2: 52-793) (domain or fragment, human, UniProt Q13563 52-793, looked up) LEIEMQRIRQAAARDPPAGAAASPSPPLSSCSRQAWSRDNPGFEAEEEEEEVEGEEGGMVVEMDVEWRPGSRRSAASSAVSSVGARSRGLGGYHGAGHPSGRRRRREDQGPPCPSPVGGGDPLHRHLPLEGQPPRVAWAERLVRGLRGLWGTRLMEESSTNREKYLKSVLRELVTYLLFLIVLCILTYGMMSSNVYYYTRMMSQLFLDTPVSKTEKTNFKTLSSMEDFWKFTEGSLLDGLYWKMQPSNQTEADNRSFIFYENLLLGVPRIRQLRVRNGSCSIPQDLRDEIKECYDVYSVSSEDRAPFGPRNGTAWIYTSEKDLNGSSHWGIIATYSGAGYYLDLSRTREETAAQVASLKKNVWLDRGTRATFIDFSVYNANINLFCVVRLLVEFPATGGVIPSWQFQPLKLIRYVTTFDFFLAACEIIFCFFIFYYVVEEILEIRIHKLHYFRSFWNCLDVVIVVLSVVAIGINIYRTSNVEVLLQFLEDQNTFPNFEHLAYWQIQFNNIAAVTVFFVWIKLFKFINFNRTMSQLSTTMSRCAKDLFGFAIMFFIIFLAYAQLAYLVFGTQVDDFSTFQECIFTQFRIILGDINFAEIEEANRVLGPIYFTTFVFFMFFILLNMFLAIINDTYSEVKSDLAQQKAEMELSDLIRKGYHKALVKLKLKKNTVDDISESLRQGGGKLNFDELRQDLKGKGHTDAEIEAIFTKYDQDGDQELTEHEHQQMRDDLEKEREDLDLDH | binds | –
2 | PKD2 F629S variant channel (hPKD2: 52-793) (domain or fragment, human, UniProt Q13563 52-793, looked up) LEIEMQRIRQAAARDPPAGAAASPSPPLSSCSRQAWSRDNPGFEAEEEEEEVEGEEGGMVVEMDVEWRPGSRRSAASSAVSSVGARSRGLGGYHGAGHPSGRRRRREDQGPPCPSPVGGGDPLHRHLPLEGQPPRVAWAERLVRGLRGLWGTRLMEESSTNREKYLKSVLRELVTYLLFLIVLCILTYGMMSSNVYYYTRMMSQLFLDTPVSKTEKTNFKTLSSMEDFWKFTEGSLLDGLYWKMQPSNQTEADNRSFIFYENLLLGVPRIRQLRVRNGSCSIPQDLRDEIKECYDVYSVSSEDRAPFGPRNGTAWIYTSEKDLNGSSHWGIIATYSGAGYYLDLSRTREETAAQVASLKKNVWLDRGTRATFIDFSVYNANINLFCVVRLLVEFPATGGVIPSWQFQPLKLIRYVTTFDFFLAACEIIFCFFIFYYVVEEILEIRIHKLHYFRSFWNCLDVVIVVLSVVAIGINIYRTSNVEVLLQFLEDQNTFPNFEHLAYWQIQFNNIAAVTVFFVWIKLFKFINFNRTMSQLSTTMSRCAKDLFGFAIMFFIIFLAYAQLAYLVFGTQVDDFSTSQECIFTQFRIILGDINFAEIEEANRVLGPIYFTTFVFFMFFILLNMFLAIINDTYSEVKSDLAQQKAEMELSDLIRKGYHKALVKLKLKKNTVDDISESLRQGGGKLNFDELRQDLKGKGHTDAEIEAIFTKYDQDGDQELTEHEHQQMRDDLEKEREDLDLDH | – | 4
3 | PKD2 R638C variant channel (hPKD2: 52-793) (domain or fragment, human, UniProt Q13563 52-793, looked up) LEIEMQRIRQAAARDPPAGAAASPSPPLSSCSRQAWSRDNPGFEAEEEEEEVEGEEGGMVVEMDVEWRPGSRRSAASSAVSSVGARSRGLGGYHGAGHPSGRRRRREDQGPPCPSPVGGGDPLHRHLPLEGQPPRVAWAERLVRGLRGLWGTRLMEESSTNREKYLKSVLRELVTYLLFLIVLCILTYGMMSSNVYYYTRMMSQLFLDTPVSKTEKTNFKTLSSMEDFWKFTEGSLLDGLYWKMQPSNQTEADNRSFIFYENLLLGVPRIRQLRVRNGSCSIPQDLRDEIKECYDVYSVSSEDRAPFGPRNGTAWIYTSEKDLNGSSHWGIIATYSGAGYYLDLSRTREETAAQVASLKKNVWLDRGTRATFIDFSVYNANINLFCVVRLLVEFPATGGVIPSWQFQPLKLIRYVTTFDFFLAACEIIFCFFIFYYVVEEILEIRIHKLHYFRSFWNCLDVVIVVLSVVAIGINIYRTSNVEVLLQFLEDQNTFPNFEHLAYWQIQFNNIAAVTVFFVWIKLFKFINFNRTMSQLSTTMSRCAKDLFGFAIMFFIIFLAYAQLAYLVFGTQVDDFSTFQECIFTQFCIILGDINFAEIEEANRVLGPIYFTTFVFFMFFILLNMFLAIINDTYSEVKSDLAQQKAEMELSDLIRKGYHKALVKLKLKKNTVDDISESLRQGGGKLNFDELRQDLKGKGHTDAEIEAIFTKYDQDGDQELTEHEHQQMRDDLEKEREDLDLDH | – | 4
